Assay results: patent US20220196676A1 (NORDIC BIOSCIENCE A S, published 2022)

Tests used:
[1] = biological target: T1, elongated peptide SFSGYLLYPMA; assay: C8-C competitive ELISA with HRP-labelled 13G5
T1 construct: Selection peptide with one more alanine at the C-terminus; synthetic (Chinese Peptide Company); also called elongated peptide (one additional amino acid)
T1 peptide: SFSGYLLYPMA
Method: (§1) ELISA-plates used for the assay development were Streptavidin-coated from Roche (cat.: 11940279). All ELISA plates were analyzed with the ELISA reader from Molecular Devices, SpectraMax M, (CA, USA). We labelled the selected monoclonal antibody with horseradish peroxidase (HRP) using the Lightning link HRP labelling kit according to the instructions of the manufacturer (Innovabioscience, Babraham, Cambridge, UK). A 96-well streptavidin plate was coated with biotinylated synthetic peptide biotin-[…] (SEQ ID NO: 25) (Chinese Peptide Company, China) dissolved in assay buffer (50 mM Trizma, 0.46 mM Tween 20, 0.08 mM Phenol Red, 34 mM NaCl, 0.36% Bronidox L5, 1% BSA, pH 7.4) and incubated 30 minutes at 20° C. 20 μL of standard peptide or samples diluted in assay buffer were added to appropriate wells, followed by 100 μL of HRP conjugated monoclonal antibody 13G5, and incubated 20 hour at 4° C. Finally, 100 μL tetramethylbenzinidine (TMB) (Kem-En-Tec cat.4380H) was added and the plate was incubated 15 minutes at 20° C. in the dark. All the above incubation steps included shaking at 300 rpm. After each incubation step the plate was washed five times in washing buffer (20 mM Tris, 50 mM NaCl). The TMB reaction was stopped by adding 100 μL of stopping solution (1% H₂SO₄) and measured at 450 nm with 650 nm as the reference. […]

[2] = biological target: T2, nonsense peptide YLSGPFMSYL; assay: C8-C competitive ELISA with HRP-labelled 13G5
T2 construct: Control peptide of the C8-C specificity test; also called nonsense peptide (C8-C)
T2 peptide: YLSGPFMSYL
Method: as §1

binding result [1]: no binding
binding result [2]: no binding
B1: monoclonal antibody NB683-13G5 (antibody, mouse IgG1, kappa, V domains shown)
VH: EVLLQQSGPELEKPGASVKISCKASGYSLTDYNMNWVKQSDGKSLEWIGIIDPNYGDTNYNQKFKDKATLTVDKSSNTAHMQLKSLTSDDSAVYYCARSGYYGNSHYGLDYWGQGTSVTVSS
VL: QIVLTQSPAIMSASPGERVTMTCSVSSSVGYIHWYQQKSGTSPKRWISDTSKLASGVPSRFSGSGSGASYSLTIDRVEAEDAATYYCQQWSSNPPTFGGGTKLEMKR
notes: also called clone 13G5; monoclonal antibody 13G5
